Data taken from EP2420830B1 (Forschungsverbund Berlin e.V., dated 2016).

T1: GGA2 (from HeLa cell lysate) (human (HeLa cells), UniProt Q9UJY4 1-613)
T1 sequence (looked up): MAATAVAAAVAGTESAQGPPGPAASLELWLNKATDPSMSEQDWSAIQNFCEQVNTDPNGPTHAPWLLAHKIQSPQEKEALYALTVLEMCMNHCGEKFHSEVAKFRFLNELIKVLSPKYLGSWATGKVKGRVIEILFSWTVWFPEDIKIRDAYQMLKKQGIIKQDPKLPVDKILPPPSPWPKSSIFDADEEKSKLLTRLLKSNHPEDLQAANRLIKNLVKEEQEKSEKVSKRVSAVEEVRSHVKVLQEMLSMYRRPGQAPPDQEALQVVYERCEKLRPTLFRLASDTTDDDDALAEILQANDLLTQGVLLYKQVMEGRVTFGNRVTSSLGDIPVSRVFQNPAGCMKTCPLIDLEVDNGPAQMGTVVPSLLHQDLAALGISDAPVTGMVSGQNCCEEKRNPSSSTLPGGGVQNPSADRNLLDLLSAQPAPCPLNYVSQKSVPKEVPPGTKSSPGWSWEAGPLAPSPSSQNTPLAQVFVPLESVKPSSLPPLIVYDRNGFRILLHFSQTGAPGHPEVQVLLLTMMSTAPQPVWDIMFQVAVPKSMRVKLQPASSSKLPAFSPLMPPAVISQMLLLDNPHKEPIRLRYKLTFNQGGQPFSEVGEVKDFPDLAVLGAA

T2: GGA3 (from HeLa cell lysate) (human (HeLa cells), UniProt Q9NZ52 1-723)
T2 sequence (looked up): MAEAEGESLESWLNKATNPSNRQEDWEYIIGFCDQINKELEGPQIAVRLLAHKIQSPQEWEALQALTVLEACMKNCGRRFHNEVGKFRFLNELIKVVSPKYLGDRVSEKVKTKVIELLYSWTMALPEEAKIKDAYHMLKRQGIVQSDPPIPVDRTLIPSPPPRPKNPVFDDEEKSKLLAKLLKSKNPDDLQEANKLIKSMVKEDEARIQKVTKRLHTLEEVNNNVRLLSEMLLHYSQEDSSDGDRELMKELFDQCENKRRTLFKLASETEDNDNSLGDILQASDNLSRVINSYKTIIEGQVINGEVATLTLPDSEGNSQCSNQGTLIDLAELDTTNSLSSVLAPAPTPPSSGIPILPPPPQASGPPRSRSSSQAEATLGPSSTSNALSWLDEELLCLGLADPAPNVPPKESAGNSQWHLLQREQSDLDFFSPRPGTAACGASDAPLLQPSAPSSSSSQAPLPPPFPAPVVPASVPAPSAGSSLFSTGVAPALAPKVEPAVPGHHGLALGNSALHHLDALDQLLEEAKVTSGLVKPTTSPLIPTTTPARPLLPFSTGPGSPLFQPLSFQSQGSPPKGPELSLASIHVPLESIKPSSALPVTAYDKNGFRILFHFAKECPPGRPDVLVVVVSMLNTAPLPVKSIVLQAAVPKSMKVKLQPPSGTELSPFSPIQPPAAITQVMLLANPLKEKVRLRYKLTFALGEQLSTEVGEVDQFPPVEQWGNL


How the values were obtained:
[1] = biological target: T1, GGA2 (from HeLa cell lysate); assay: GST pull-down from HeLa cell extract, immunoblot
[2] = biological target: T2, GGA3 (from HeLa cell lysate); assay: GST pull-down from HeLa cell extract, immunoblot

| binding result [1] | binding result [2] | Binder |
| --- | --- | --- |
| no binding | no binding | GST fusion protein of the human CIC-7 N-terminus, mutant combining LL23/24AA and LL68/69AA (2xLLAA) (other, not shown: N-terminal GST tag of pGEX-5X-1 and the vector linker) MANVSKKVSWSGRDRDDEEAAPAARRTARPGGGTPLLNGAGPGAARQSPRSALFRVGHMSSVELDDEAADPDMDPPHPFPKEIPHNEKLLSLKYESLDYDNSENQLFLEEERRINHTAFRTVEIKR |
| no binding | no binding | GST fusion protein of the human CIC-7 N-terminus, mutant LL68/69AA (other, not shown: N-terminal GST tag of pGEX-5X-1 and the vector linker) MANVSKKVSWSGRDRDDEEAAPLLRRTARPGGGTPLLNGAGPGAARQSPRSALFRVGHMSSVELDDEAADPDMDPPHPFPKEIPHNEKLLSLKYESLDYDNSENQLFLEEERRINHTAFRTVEIKR |
